Our source for the Ka (interconnected allosteric constant) values is PMC7397135.

For the assay, the target named is recombinant heterodimer of human FCGRT/B2M (human neonatal IgG Fc receptor) (human) (UniProt P55899). Put plainly: electrochemical receptor sensor (amperometric I-T, time-current method); hFcγRn adsorbed in two layers on a gold nanoparticle-chitosan glassy carbon electrode with thionine and HRP as signal amplification, blocked with BSA; IgG in solution; constant voltage -0.38 V; data collected after 20 s; 8 mmol/L H2O2 in the test substrate; ultrapure water as blank; change rate of response current against IgG concentration, Ka by the double reciprocal (Lineweaver-Burk) method.
UniProt P55899, sequence (P55899 24-297, chain 1 of 2): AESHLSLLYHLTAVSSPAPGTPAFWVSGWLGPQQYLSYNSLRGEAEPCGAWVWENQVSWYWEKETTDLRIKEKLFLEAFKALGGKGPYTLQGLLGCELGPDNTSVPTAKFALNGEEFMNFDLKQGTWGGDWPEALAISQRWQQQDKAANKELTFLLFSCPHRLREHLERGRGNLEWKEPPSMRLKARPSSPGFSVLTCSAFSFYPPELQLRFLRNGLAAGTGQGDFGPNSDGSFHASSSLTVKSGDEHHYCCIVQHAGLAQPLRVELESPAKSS
UniProt P55899, sequence (P61769 21-119, chain 2 of 2, further chain): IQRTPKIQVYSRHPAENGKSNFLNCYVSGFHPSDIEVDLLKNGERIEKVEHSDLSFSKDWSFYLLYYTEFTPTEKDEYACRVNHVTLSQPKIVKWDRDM
With Bovine IgG (antibody), the Ka (interconnected allosteric constant) came to 1.59e-22 mol/L. For the substance Donkey IgG (antibody), the Ka (interconnected allosteric constant) was determined as 1.14e-21 mol/L.

Consider Horse IgG (antibody), for which the Ka (interconnected allosteric constant) is 1.2e-22 mol/L.

As to Human IgG (antibody), the Ka (interconnected allosteric constant) stood at 1.02e-23 mol/L.

As to Quail IgY (antibody), the Ka (interconnected allosteric constant) is 8.61e-20 mol/L. With Rabbit IgG (antibody), the Ka (interconnected allosteric constant) is 2.29e-21 mol/L. As for Sheep IgG (antibody), the Ka (interconnected allosteric constant) came to 2.17e-21 mol/L.
